In the assay the target is Acinetobacter baumannii rhodanese-like domain protein (Ab-RLD) (Acinetobacter baumannii). Description: SEC.

“Acinetobacter baumannii rhodanese-like domain protein (Ab-RLD) (enzyme)”: the stoichiometry N – broadly, the number of molecules, sites or subunits per partner or assembly – was determined as 2.
